Measurements from patent publication US20250334594A1 (ELEDON PHARMACEUTICALS, published 2025).

B1: recombinant human CD40L protein (Santa Cruz Biotechnology) (ligand, UniProt P29965 113-261, looked up)
chain: MQKGDQNPQIAAHVISEASSKTTSVLQWAEKGYYTMSNNLVTLENGKQLTVKRQGLYYIYAQVTFCSNREASSQAPFIASLCLKSPGRFERILLRAANTHSSAKPCGQQSIHLGGVFELQPGASVFVNVTDPSQVSHGTGFTSFGLLKL
notes: Bought reagent; also called CD154

Experiments:
[1] = biological target: recombinant human FcγRI (human) (UniProt P12314); assay: ELISA: antibody coated (2 µg/ml), recombinant human FcγRI titrated, mouse anti-CD64 + HRP anti-mouse IgG, A450
[2] = biological target: control protein CTLA4-IgG1 (UniProt P16410 38-161, limits assumed); assay: sandwich ELISA: protein coated (2 µg/ml), huCD40L titrated, biotinylated goat anti-CD40L polyclonal + streptavidin-HRP, A450
control protein CTLA4-IgG1, sequence (P16410 other isoform, or with tags, fused parts or gaps limits assumed): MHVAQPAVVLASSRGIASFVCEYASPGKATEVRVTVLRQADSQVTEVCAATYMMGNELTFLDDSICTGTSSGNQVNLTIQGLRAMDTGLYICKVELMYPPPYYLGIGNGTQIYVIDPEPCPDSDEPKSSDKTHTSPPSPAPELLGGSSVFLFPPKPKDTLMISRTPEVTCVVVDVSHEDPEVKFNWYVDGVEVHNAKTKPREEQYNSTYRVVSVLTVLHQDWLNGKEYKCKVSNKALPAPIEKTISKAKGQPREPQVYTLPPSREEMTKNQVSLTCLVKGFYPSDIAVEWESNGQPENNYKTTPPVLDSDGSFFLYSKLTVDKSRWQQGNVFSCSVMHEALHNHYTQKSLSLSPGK
Protocol: All washes were performed using 3 washes of 250 μl of PBS. […] The plate was washed and then blocked with 2% bovine serum albumin/PBS for 1 hour at room temperature. The plate was washed and recombinant human CD40L protein (Santa Cruz Biotechnology, Santa Cruz, California, USA) was added to the plate titrated out by 2-fold dilution starting at 2000 ng/ml. After binding and washing, the bound CD40L protein was detected using 100 μl a biotinylated goat anti-human CD40L polyclonal antibody (200 ng/ml) and 100 μl a streptavidin-horseradish peroxidase conjugate at 100 ng/ml. Colorimetric detection was performed with the chromagen TMB (3,3′,5,5′-tetramethylbenzidine) and spectrophotometric analysis of absorption at 450 nm.

recombinant human FcγRI (human), sequence (P12314 16-288 limits assumed): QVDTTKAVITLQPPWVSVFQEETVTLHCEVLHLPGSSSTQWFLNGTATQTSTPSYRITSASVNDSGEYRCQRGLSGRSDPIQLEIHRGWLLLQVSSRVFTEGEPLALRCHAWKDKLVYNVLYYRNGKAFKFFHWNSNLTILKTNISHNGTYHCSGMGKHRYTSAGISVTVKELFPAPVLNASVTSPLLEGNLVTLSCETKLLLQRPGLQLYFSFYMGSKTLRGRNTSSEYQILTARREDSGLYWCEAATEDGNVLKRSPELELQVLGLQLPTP

| Molecule | EC50 (read off the curve) [1] [µg/mL] | binding result [2] |
| --- | --- | --- |
| anti-CD40L antibody 5c8 (reference antibody) | 0.2 |  |
| B1 |  | no binding (tested: 2 micrograms/mL) |
